{"source": "patent US20110212853", "molecular_target": "recombinant human MCP-1 N1pE (human MCP-1 with an N-terminal pyroglutamate)"}
{"protein": "recombinant human dipeptidyl peptidase 4 (protein) NKGTDDATADSRKTYTLTDYLKNTYRLKLYSLRWISDHEYLYKQENNILVFNAEYGNSSVFLENSTFDEFGHSINDYSISPDGQFILLEYNYVKQWRHSYTASYDIYDLNKRQLITEERIPNNTQWVTWSPVGHKLAYVWNNDIYVKIEPNLPSYRITWTGKEDIIYNGITDWVYEEEVFSAYSALWWSPNGTFLAYAQFNDTEVPLIEYSFYSDESLQYPKTVRVPYPKAGAVNPTVKFFVVNTDSLSSVTNATSIQITAPASMLIGDHYLCDVTWATQERISLQWLRRIQNYSVMDICDYDESSGRWNCLVARQHIEMSTTGWVGRFRPSEPHFTLDGNSFYKIISNEEGYRHICYFQIDKKDCTFITKGTWEVIGIEALTSDYLYYISNEYKGMPGGRNLYKIQLSDYTKVTCLSCELNPERCQYYSVSFSKEAKYYQLRCSGPGLPLYTLHSSVNDKGLRVLEDNSALDKMLQNVQMPSKKLDFIILNETKFWYQMILPPHFDKSKKYPLLLDVYAGPCSQKADTVFRLNWATYLASTENIIVASFDGRGSGYQGDKIMHAINRRLGTFEVEDQIEAARQFSKMGFVDNKRIAIWGWSYGGYVTSMVLGSGSGVFKCGIAVAPVSRWEYYDSVYTERYMGLPTPEDNLDHYRNSTVMSRAENFKQVEYLLIHGTADDNVHFQQSAQISKALVDVGVDFQAMWYTDEDHGIASSTAHQHIYTHMSHFIKQCFSLP", "values": [{"measurement": "N-terminal cleavage, Maldi-TOF mass spectrometry", "value": "MCP-1 is protected by a N-terminal pGlu-residue, which confers resistance against N-terminal cleavage by aminopeptidases, e.g. DP4"}]}
